According to patent publication US20130243743A1 (ACCELERON PHARMA, published 2013):
Where two headings read alike, the source gives them in different places.

What was measured:
[1] = molecular target: T1, Activin A (UniProt P08476 311-426); assay: cell-based or functional assay
T1 sequence (looked up): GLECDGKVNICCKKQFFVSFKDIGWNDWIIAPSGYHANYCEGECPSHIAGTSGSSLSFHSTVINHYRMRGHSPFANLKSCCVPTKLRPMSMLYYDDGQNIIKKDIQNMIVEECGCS

[2] = molecular target: T2, Growth and Differentiation Factor-11 (GDF11) (UniProt O95390 299-407); assay: cell-based or functional assay
T2 sequence (looked up): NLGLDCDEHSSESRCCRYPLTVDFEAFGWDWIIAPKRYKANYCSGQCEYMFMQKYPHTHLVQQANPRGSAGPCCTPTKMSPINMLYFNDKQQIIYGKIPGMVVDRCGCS

[3] = molecular target: T1, Activin A; assay: Biacore SPR; ligand coupled to the device, receptor flowed (table reproduced from WO2006/012627); +15tail variant; ligand coupled to the device, receptor flowed over it (data from WO2006/012627)
[4] = molecular target: T2, Growth and Differentiation Factor-11 …; assay: as above

B1: ActRIIB(20-128)-hFc (Fc fusion, not shown: a dimerising Fc or GST)
chain: GRGEAETRECIYYNANWELERTNQSGLERCEGEQDKRLHCYASWRNSSGTIELVKKGCWLDDFNCYDRQECVATEENPQVYFCCCEGNFCNERFTHLPEAGGPEVTYEP
[1]
  IC50, inhibition of ligand signalling, A-204 reporter gene assay (conditioned media): 158 ng/mL
[2]
  IC50, inhibition of ligand signalling, A-204 reporter gene assay (conditioned media): 130 ng/mL

B2: ActRIIB(20-131)-hFc (Fc fusion, not shown: a dimerising Fc or GST)
chain: GRGEAETRECIYYNANWELERTNQSGLERCEGEQDKRLHCYASWRNSSGTIELVKKGCWLDDFNCYDRQECVATEENPQVYFCCCEGNFCNERFTHLPEAGGPEVTYEPPPT
[1]
  IC50, inhibition of ligand signalling, A-204 reporter gene assay (conditioned media): 201 ng/mL
[1]; record 2
  IC50, inhibition of ligand signalling, A-204 reporter gene assay (conditioned media): 44 ng/mL
[2]
  IC50, inhibition of ligand signalling, A-204 reporter gene assay (conditioned media): 183 ng/mL
[2]; record 2
  IC50, inhibition of ligand signalling, A-204 reporter gene assay (conditioned media): 120 ng/mL

B3: ActRIIB(21-131)-hFc (Fc fusion, not shown: a dimerising Fc or GST)
chain: RGEAETRECIYYNANWELERTNQSGLERCEGEQDKRLHCYASWRNSSGTIELVKKGCWLDDFNCYDRQECVATEENPQVYFCCCEGNFCNERFTHLPEAGGPEVTYEPPPT
[1]
  IC50, inhibition of ligand signalling, A-204 reporter gene assay (conditioned media): 325 ng/mL
[2]
  IC50, inhibition of ligand signalling, A-204 reporter gene assay (conditioned media): 121 ng/mL

B4: ActRIIB(22-131)-hFc (Fc fusion, not shown: a dimerising Fc or GST)
chain: GEAETRECIYYNANWELERTNQSGLERCEGEQDKRLHCYASWRNSSGTIELVKKGCWLDDFNCYDRQECVATEENPQVYFCCCEGNFCNERFTHLPEAGGPEVTYEPPPT
[1]
  IC50, inhibition of ligand signalling, A-204 reporter gene assay (conditioned media): 100 ng/mL
[2]
  IC50, inhibition of ligand signalling, A-204 reporter gene assay (conditioned media): 71 ng/mL

B5: ActRIIB(23-131)-hFc (Fc fusion, not shown: a dimerising Fc or GST)
chain: EAETRECIYYNANWELERTNQSGLERCEGEQDKRLHCYASWRNSSGTIELVKKGCWLDDFNCYDRQECVATEENPQVYFCCCEGNFCNERFTHLPEAGGPEVTYEPPPT
[1]
  IC50, inhibition of ligand signalling, A-204 reporter gene assay (conditioned media): 43 ng/mL
[2]
  IC50, inhibition of ligand signalling, A-204 reporter gene assay (conditioned media): 60 ng/mL

B6: ActRIIB(24-131)-hFc (Fc fusion, not shown: a dimerising Fc or GST)
chain: AETRECIYYNANWELERTNQSGLERCEGEQDKRLHCYASWRNSSGTIELVKKGCWLDDFNCYDRQECVATEENPQVYFCCCEGNFCNERFTHLPEAGGPEVTYEPPPT
[1]
  IC50, inhibition of ligand signalling, A-204 reporter gene assay (conditioned media): 105 ng/mL
[2]
  IC50, inhibition of ligand signalling, A-204 reporter gene assay (conditioned media): 69 ng/mL

B7: ActRIIB(20-132)-hFc (Fc fusion, not shown: a dimerising Fc or GST)
chain: GRGEAETRECIYYNANWELERTNQSGLERCEGEQDKRLHCYASWRNSSGTIELVKKGCWLDDFNCYDRQECVATEENPQVYFCCCEGNFCNERFTHLPEAGGPEVTYEPPPTA
[1]
  IC50, inhibition of ligand signalling, A-204 reporter gene assay (conditioned media): 32 ng/mL
[2]
  IC50, inhibition of ligand signalling, A-204 reporter gene assay (conditioned media): 87 ng/mL

B8: ActRIIB(20-134)-hFc (Fc fusion, not shown: a dimerising Fc or GST)
chain: GRGEAETRECIYYNANWELERTNQSGLERCEGEQDKRLHCYASWRNSSGTIELVKKGCWLDDFNCYDRQECVATEENPQVYFCCCEGNFCNERFTHLPEAGGPEVTYEPPPTAPT
[1]
  IC50, inhibition of ligand signalling, A-204 reporter gene assay (conditioned media): 22 ng/mL
[2]
  IC50, inhibition of ligand signalling, A-204 reporter gene assay (conditioned media): 45 ng/mL

B9: Soluble ActRIIB-Fc +15tail (Fc fusion)
chain: GRGEAETRECIYYNANWELERTNQSGLERCEGEQDKRLHCYASWANSSGTIELVKKGCWLDDFNCYDRQECVATEENPQVYFCCCEGNFCNERFTHLPEAGGPEVTYEPPPTAPT
notes: not shown: linker and Fc
[3]
  Kd: ~26 nM
[4]
  Kd: 19 nM
